Data reported in PMC7596504, “Molecular mechanism of the MORC4 ATPase activation” (Nature Communications, 2020).
“Also recorded” adds a separate entry of the source.

Key:
HEK293T cells [1] = assay: MORC4 localization and nuclear bodies (confocal microscopy); format: cell-based; conditions: 127 cells quantified
Experimental: WT mCherry-MORC4, mCherry-MORC4 E56A, mCherry-MORC4 W435A, mCherry-MORC4 E56A/W435A, mCherry-MORC4 K460A/R462A/R463A, or mCherry control plasmid were transfected into 2 million 293T-HEK cells seeded on 25 mm circular coverslips (Carolina Biological Supply Item#: 633057) in 10-cm-diameter tissue culture dish by Lipofectamine 3000 (Life Technology, L3000-075) following the manufacturer’s instructions. Two days after transfection, cells were stained with Hoechst […] for 30 min and imaged live on a ZeissAxiovert 200 M inverted microscope fitted with a ×40 oil objective. Images were acquired with Slidebook 6 software and exported for analysis in Image J.
mCherry foci sizes were calculated using ImageJ image processing program (version 1.51) using the Analyze Particle tool. mCherry particle sizes were collected for MORC4 WT and MORC4 W435A transfected cells. Data were plotted with R (version 3.4.1) using ggplot2 (version 3.2.1). Cell size and mCherry foci count per cell were calculated using CellProfile cell image analysis software (version 3.1.5) to identify nuclei and mCherry foci, relate mCherry foci to nuclei containing them and measure the size of nuclei and number mCherry foci contained. Data were plotted with R (version 3.4.1) using ggplot2 (version 3.2.1).

601 DNA = assay: EMSA with 601 DNA; format: binding; conditions: 147 bp 601 DNA 5 pmol, pH 7.5, 150 mM NaCl, 0.5 h on ice, listed as E56A mutant of MORC4
Experimental: EMSA experiments were performed essentially as described. In brief, increasing amounts of WT or mutant CW or ATPaseCW cassette of MORC4 were incubated with 147 bp 601 DNA (5 pmol) or 50 ng of O’RangeRuler 5 bp ladder (Thermo Scientific) in a DNA-binding buffer containing 20 mM Tris-HCl (pH 7.5), 150 mM NaCl, 2.5 mM MgCl2, and 2 mM DTT for 0.5 h on ice. The reaction mixtures were loaded on 5% native polyacrylamide gels, and electrophoresis was performed in 0.2× Tris-borate-EDTA (TBE) buffer at 100 V for 1.2 h on ice. Gels were stained with SYBR Gold (Invitrogen).

MORC4 = assay: ATPase activity assay (EnzChek Phosphate Assay Kit); format: biochemical, human; conditions: listed as E56A mutant of MORC4
Experimental: To determine whether MORC4 is catalytically active, we produced the ATPase domain of human MORC4 and examined its ability to hydrolyze ATP in enzymatic assays (Fig. 1a–c). Following incubation of the ATPase domain with ATP, 2-amino-6-mercapto-7-methylpurine ribonucleoside and nucleoside phosphorylase, the release of inorganic phosphate generated by the hydrolysis of ATP to ADP was monitored by measuring an increase in absorbance at 360 nm.
The ATPase assays were performed using the EnzChek Phosphate Assay Kit (Invitrogen, item # E6646). The reactions were carried out on 1.0 µM of MORC4 His-ATPase or ATPaseCW (WT and mutants), in the presence and absence of 1 µM 601 DNA or 50 µM of unmodified H3 or H3K4me3 peptide (aa 1–12 of H3) in a buffer containing 50 mM Tris-HCl (pH 7.5), 150 mM NaCl, 1 mM MgCl2, 0.1 mM sodium azide, 200 µM MESG, and 1 U of PNP. In assay with the nucleosome, 0.5 µM of MORC4 ATPaseCW and 0.5 µM NCP167 (Activemotif) were used. The reaction was started by adding 2 mM ATP to the mixture at room temperature, and the release of inorganic phosphate was monitored by measuring the absorbance at 360 nm on a Nanodrop 2000c spectrophotometer (Thermo Scientific). In the presence of inorganic phosphate, produced by the hydrolysis of ATP to ADP, MESG is enzymatically converted to ribose 1-phosphate and […] by PNP, resulting in a shift in the wavelength absorbance from 330 nm for MESG to 360 nm for the product. The rate of ATP self-hydrolysis was measured in parallel. Error was calculated as the S.D. of at least three separate experiments (two in Fig. 4j).

HEK293T cells [2] = assay: Cell cycle analysis by flow cytometry; format: cell-based; conditions: 48-h overexpression of mCherry-tagged protein, EdU/PI; average of three independent experiments; control 34.5%
Experimental: For DNA content analysis, 10^6 cells previously transfected with mCherry MORC4 constructs and labeled with 25 µM Ethynyl deoxyUridine (EdU) for 1 h in 100 µL were washed with PBS (NaCl 137 mM, KCl 2.7 mM, Na2HPO4 10 mM, KH2PO4 1.8 mM) and fixed in ice cold 70% ethanol overnight. Fixed cells were washed and resuspended in PBS containing 0.05% NP40 and incubated at room temperature for 30 min. Cells were again washed with PBS. Cells were resuspended in Alexa Fluor 647 click staining solution (100 mM Tris pH 7.6, 4 mM CuSO4, 3 µM AF647 azide, 100 mM Sodium Ascorbate) for 1 h. Following staining, cells were washed with PBS and then stained for total DNA content using 10 μg/mL propidium iodide (PI) and 0.2 mg/ml RNase A for 60 min before analysis on a FACScan instrument. Data were analyzed using FlowJo (Version 10) with cells gated to remove doublets. EdU vs PI plots were gated in quadrants to identify G1, early S, late S and G2/M cells. S phase fractions were summed for total S phase population. […]

B1: MORC4 E56A: mCherry-tagged full-length MORC4 E56A mutant, catalytically impaired ATPase domain (protein, UniProt Q8TE76 1-937, looked up, variant E56A)
chain: MLLYRGAPAGPGAPGCGLARPGGGPQAFGIRLSTMSPRYLQSNSSSHTRPFSAIAALLDNAVDPDVSARTVFIDVEEVKNKSCLTFTDDGCGMTPHKLHRMLSFGFTDKVIKKSQCPIGVFGNGFKSGSMRLGKDALVFTKNGGTLTVGLLSQTYLECVQAQAVIVPIVPFNQQNKKMIITEDSLPSLEAILNYSIFNRENDLLAQFDAIPGKKGTRVLIWNIRRNKNGKSELDFDTDQYDILVSDFDTEEKMTGGVTSELPETEYSLRAFCGILYMKPRMKIFLRQKKVTTQMIAKSLANVEYDTYKPTFTNKQVRITFGFSCKNSNQFGIMMYHNNRLIKSFEKVGCQVKPTRGEGVGVIGVIECNFLKPAYNKQDFEYTKEYRLTINALAQKLNAYWKEKTSQDNFETSTVARPIPKVPDQTWVQCDECLKWRKLPGKIDPSMLPARWFCYYNSHPKYRRCSVPEEQELTDEDLCLSKAKKQEQTVEEKKKMPMENENHQVFSNPPKILTVQEMAGLNNKTIGYEGIHSPSVLPSGGEESRSPSLQLKPLDSSVLQFSSKYKWILGEEPVEKRRRLQNEMTTPSLDYSMPAPYRRVEAPVAYPEGENSHDKSSSERSTPPYLFPEYPEASKNTGQNREVSILYPGAKDQRQGSLLPEELEDQMPRLVAEESNRGSTTINKEEVNKGPFVAVVGVAKGVRDSGAPIQLIPFNREELAERRKAVESWNPVPYSVASAAIPAAAIGEKARGYEESEGHNTPKLKNQRELEELKRTTEKLERVLAERNLFQQKVEELEQERNHWQSEFKKVQHELVIYSTQEAEGLYWSKKHMGYRQAEFQILKAELERTKEEKQELKEKLKETETHLEMLQKAQVSYRTPEGDDLERALAKLTRLRIHVSYLLTSVLPHLELREIGYDSEQVDGILYTVLEANHILD
modifications: full-length mCherry tag
number of NBs compared to wild type (HEK293T cells [1]): significant increase in number of mCherry foci per cell
size of NBs compared to wild type (HEK293T cells [1]): significant decrease in mCherry foci size
number of NBs compared to wild type (HEK293T cells [1]; listed as E56A mutant of MORC4): notable increase in the number of NBs
size of NBs compared to wild type (HEK293T cells [1]; listed as E56A mutant of MORC4): decrease in the size of NBs
binding to 601 DNA (601 DNA): retains its DNA-binding activity; also recorded: binds DNA as WT MORC4
catalytic (ATPase) activity of the protein (MORC4): catalytically impaired ATPase domain; also recorded: catalytically inactive
percent of cells in S phase (HEK293T cells [2]): 36.3%
